Target: T1, p-hydroxyphenylpyruvate dioxygenase (HPPD) (Arabidopsis thaliana) (UniProt P93836)
T1 sequence: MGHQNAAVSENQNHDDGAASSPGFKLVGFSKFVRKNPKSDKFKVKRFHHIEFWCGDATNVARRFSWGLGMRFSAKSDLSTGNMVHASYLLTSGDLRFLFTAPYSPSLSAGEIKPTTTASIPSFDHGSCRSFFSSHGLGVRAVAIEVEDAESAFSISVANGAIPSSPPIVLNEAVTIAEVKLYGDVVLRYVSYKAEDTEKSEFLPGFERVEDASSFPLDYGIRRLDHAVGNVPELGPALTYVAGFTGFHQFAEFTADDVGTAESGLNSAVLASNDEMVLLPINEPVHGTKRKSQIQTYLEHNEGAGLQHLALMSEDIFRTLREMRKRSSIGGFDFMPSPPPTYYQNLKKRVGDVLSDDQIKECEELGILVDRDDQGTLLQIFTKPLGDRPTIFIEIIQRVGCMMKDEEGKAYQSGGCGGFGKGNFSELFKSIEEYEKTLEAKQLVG
Assay: filter
Conditions: 500 nM HPPD, 10% DMSO

“GGGAGAGGAGGGAGAUAGAUAUCAANNNNNNNNNNNNNNNNNNNNNNNNNNNNNNNNNNNNNNNNNNNNNNNAGUUUGUCCUCACGGUGGAUGG [S115B enriched library (cycle 9)]” showed a binding signal (% RNA retained) of 10.
